# Measurements from the RNAGym collection of RNA variant scans (doi:10.1021/acssynbio.7b00057).
# B1: Pistol ribozyme (parent)
# chain: GGGUCGUUGUUCCAUAAUCGCGUGGAUAUGGCACGCAAGUUUCUACCGGGCACCGUAAAUGUCCGACUGGAGCCGUUCGGGCGGCUAUAAACAGACCUCAGGCCCGAAGCGUGGCGGCACCUGCCGCCGGUGGUAAAAAAGAUCGGAAGAGCACACGUCU
# Variants of: B1
# Test: aptazyme ON/OFF ratio, guanine; higher = stronger switching; co-transcriptional cleavage with and without guanine
row,Variant,aptazyme ON/OFF ratio
1,U7C U8G G9U U10G U11A C12U,1.13
2,U7C U8G G9U U10G U11A C12G,1.17
3,U7C U8G G9U U10G U11A C12A,1.25
4,U7C U8G U10A C12A C13G,1.08
5,U7C U8G U10A C12A C13A,1.16
6,U7C U8G U10A C12A C13U,1.23
7,U7C U8G G9U U10A C12G C13A,1.13
8,U7C U8G G9U U10A C12G C13U,1.21
9,U7C U8G G9U U10A C12G C13G,1.18
10,U7C U8G G9U U10C U11A C12A,1.43
11,U7C U8G G9U U10C U11A C12G,1.26
12,U7C U8G G9U U10C U11A C12U,1.41
13,U7C U8G G9U U11A C12U C13G,1.24
14,U7C U8G G9U U11A C12U C13A,1.43
15,U7C U8G G9U U11A C12U C13U,1.45
16,U7C U8G G9U U10C U11G C13U,1.19
17,U7C U8G G9U U10C U11G C13G,1.03
18,U7C U8G G9U U10C U11G C13A,1.19
19,U7C U8G U10C U11A C12A C13G,1.14
20,U7C U8G U10C U11A C12A C13A,1.19
21,U7C U8G U10C U11A C12A C13U,1.33
22,U7C U8G G9U U10A U11C C12U C13G,1.11
23,U7C U8G G9U U10A U11C C12U C13U,1.06
24,U7C U8G G9U U10A U11C C12U C13A,1.09

row,Variant,aptazyme ON/OFF ratio
1,U7C U8G G9U U10C U11G C12A C13U,1.22
2,U7C U8G G9U U10C U11G C12A C13A,1.1
3,U7C U8G G9U U10C U11G C12A C13G,1.13
4,U7C U8G G9U U10G C12A C13U,1.15
5,U7C U8G G9U U10G C12A C13G,1.09
6,U7C U8G G9U U10G C12A C13A,1.12
7,U7C U8G G9U U10C U11A C12A C13U,1.24
8,U7C U8G G9U U10C U11A C12A C13A,1.26
9,U7C U8G G9U U10C U11A C12A C13G,1.15
10,U7C U8G G9U U10A U11G C12U C13G,1.14
11,U7C U8G G9U U10A U11G C12U C13A,1.11
12,U7C U8G G9U U10A U11G C12U C13U,1.14
13,U7C U8G G9U U10C U11C C12G C13A,1.13
14,U7C U8G G9U U10C U11C C12G C13U,1.04
15,U7C U8G G9U U10C U11C C12G C13G,1.08
16,U7C U8G U10A U11C,1.04
17,U7C U8G U10A U11G,1.35
18,U7C U8G U10A U11A,2.1
19,U7C U8G U10A U11G C12U C13G,1.08
20,U7C U8G U10A U11G C12U C13A,1.07
21,U7C U8G U10A U11G C12U C13U,1.17
22,U7C U8G G9U U10G C12A,1.15
23,U7C U8G G9U U10G C12G,1.08
24,U7C U8G G9U U10G C12U,1.12

row,Variant,aptazyme ON/OFF ratio
1,U7C U8G G9U C12U C13G,1.33
2,U7C U8G G9U C12U C13U,1.2
3,U7C U8G G9U U11A C12G C13U,1.08
4,U7C U8G G9U U11A C12G C13G,1.09
5,U7C U8G G9U U11A C12G C13A,1.05
6,U7C U8G G9U U10G U11C C12G C13G,1.07
7,U7C U8G G9U U10G U11C C12G C13A,1.03
8,U7C U8G G9U U10G U11C C12G C13U,1.08
9,U7C U8G G9U U11C C13U,1.09
10,U7C U8G G9U U11C C13G,1.02
11,U7C U8G G9U U11C C13A,1.12
12,U7C U8G G9U U10G U11C C12A,1.18
13,U7C U8G G9U U10G U11C C12G,1.18
14,U7C U8G G9U U10G U11C C12U,1.09
15,U7C U8G G9U U10A C12U,1.15
16,U7C U8G G9U U10A C12A,1.33
17,U7C U8G G9U U10A C12G,1.18
18,U7C U8G G9U U10A C12A C13U,1.22
19,U7C U8G G9U U10A C12A C13A,1.15
20,U7C U8G G9U U10A C12A C13G,1.15
21,U7C U8G G9U U11G C12U C13G,1.23
22,U7C U8G G9U U11G C12U C13U,1.29
23,U7C U8G G9U U11G C12U C13A,1.32
24,U7C U8G U10A U11A C12U,1.57

row,Variant,aptazyme ON/OFF ratio
1,U7C U8G U10A U11A C12G,1.08
2,U7C U8G U10A U11A C12A,1.14
3,U7C U8G U10A U11A C12G C13U,1.17
4,U7C U8G U10A U11A C12G C13G,1.13
5,U7C U8G U10A U11A C12G C13A,1.11
6,U7C U8G U10A,2.08
7,U7C U8G U10C,1.34
8,U7C U8G U10A C12U,2.01
9,U7C U8G U10A C12G,1.18
10,U7C U8G U10A C12A,1.41
11,U7C U8G G9U U10G C12U C13G,1.1
12,U7C U8G G9U U10G C12U C13A,1.17
13,U7C U8G G9U U10G C12U C13U,1.32
14,U7C U8G G9U U10A U11A C12A C13U,1.24
15,U7C U8G G9U U10A U11A C12A C13A,1.16
16,U7C U8G G9U U10A U11A C12A C13G,1.14
17,U7C U8G G9U U10A U11C C12A C13A,1.16
18,U7C U8G G9U U10A U11C C12A C13U,1.13
19,U7C U8G G9U U10A U11C C12A C13G,1.16
20,U7C U8G G9U U10A U11G C12A C13G,1.14
21,U7C U8G G9U U10A U11G C12A C13U,1.06
22,U7C U8G G9U U10A U11G C12A C13A,1.11
23,U7C U8G G9U U10A U11C C12A,1.14
24,U7C U8G G9U U10A U11C C12U,1.04

row,Variant,aptazyme ON/OFF ratio
1,U7C U8G G9U U10A U11C C12G,1.2
2,U7C U8G G9U U10C U11G,1.23
3,U7C U8G G9U U10C U11C,1.06
4,U7C U8G G9U U10C U11A,1.5
5,U7C U8G G9U C13U,1.55
6,U7C U8G G9U C13G,1.06
7,U7C U8G G9U C13A,1.31
8,U7C U8G G9U U11A,1.58
9,U7C U8G G9U U11G,1.2
10,U7C U8G G9U U11C,1.13
11,U7C U8G G9U U10G C13G,1.17
12,U7C U8G G9U U10G C13A,1.19
13,U7C U8G G9U U10G C13U,1.2
14,U7C U8G U10A U11A C12U C13A,1.16
15,U7C U8G U10A U11A C12U C13G,1.12
16,U7C U8G U10A U11A C12U C13U,1.16
17,U7C U8G G9U U10A U11C C12G C13U,1.19
18,U7C U8G G9U U10A U11C C12G C13G,1.27
19,U7C U8G G9U U10A U11C C12G C13A,1.16
20,U7C U8G G9U U10A U11A C12U C13A,1.22
21,U7C U8G G9U U10A U11A C12U C13U,1.25
22,U7C U8G G9U U10A U11A C12U C13G,1.08
23,U7C U8G G9U U11C C12A C13U,1.33
24,U7C U8G G9U U11C C12A C13G,1.13

row,Variant,aptazyme ON/OFF ratio
1,U7C U8G G9U U11C C12A C13A,1.31
2,U7C U8G G9U U10G U11A C12U C13G,1.17
3,U7C U8G G9U U10G U11A C12U C13U,1.26
4,U7C U8G G9U U10G U11A C12U C13A,1.24
5,U7C U8G G9U U10G U11G C13U,1.21
6,U7C U8G G9U U10G U11G C13A,1.23
7,U7C U8G G9U U10G U11G C13G,1.06
8,U7C U8G G9U U11A C12A,1.52
9,U7C U8G G9U U11A C12U,1.39
10,U7C U8G G9U U11A C12G,1.18
11,U7C U8G G9U U10C C13U,2.24
12,U7C U8G G9U U10C C13A,1.15
13,U7C U8G G9U U10C C13G,1.13
14,U7C U8G G9U U10A C12U C13G,1.2
15,U7C U8G G9U U10A C12U C13A,1.2
16,U7C U8G G9U U10A C12U C13U,1.35
17,U7C U8G U10C U11A,2.93
18,U7C U8G G9U U10C C12G C13U,1.25
19,U7C U8G G9U U10C C12G C13A,1.28
20,U7C U8G G9U U10C C12G C13G,1.34
21,U7C U8G G9U U11C C12U,1.21
22,U7C U8G G9U U11C C12G,1.32
23,U7C U8G G9U U11C C12A,1.41
24,U7C U8G G9U U11G C13G,1.04

row,Variant,aptazyme ON/OFF ratio
1,U7C U8G G9U U11G C13U,1.21
2,U7C U8G G9U U11G C13A,1.21
3,U7C U8G G9U U10C U11C C13G,1.05
4,U7C U8G G9U U10C U11C C13A,1.03
5,U7C U8G G9U U10C U11C C13U,1.03
6,U7C U8G U10C C12A,2.01
7,U7C U8G U10C C12U,1.38
8,U7C U8G U10C C12G,2.01
9,U7C U8G G9U U10G U11C C13A,1.17
10,U7C U8G G9U U10G U11C C13U,1.16
11,U7C U8G G9U U10G U11C C13G,1.14
12,U7C U8G U10A U11C C12A C13G,1.05
13,U7C U8G U10A U11C C12A C13A,1.14
14,U7C U8G U10A U11C C12A C13U,1.15
15,U7C U8G U10C C12G C13G,1.13
16,U7C U8G U10C C12G C13A,1.11
17,U7C U8G U10C C12G C13U,1.35
18,U7C U8G U10A U11G C12G,1.23
19,U7C U8G U10A U11G C12U,1.2
20,U7C U8G U10A U11G C12A,1.11
21,U7C U8G G9U U10C U11A C12G C13G,1.21
22,U7C U8G G9U U10C U11A C12G C13U,1.2
23,U7C U8G G9U U10C U11A C12G C13A,1.14
